In patent publication US8986682B2, “Method to increase the absorption of unsaturated fatty acids by human infants” (Swedish Orphan Biovitrum AB (publ), priority 2010, dated 2015):
“Also recorded” adds a separate entry of the source.

Test system: preterm infants born before week 32 of gestational age
Test: Change in knee-to-heel length (knemometer), studies BVT.BSSL-020/-021
Format: in vivo, human
Details: FAS and PP, combined data and by study, one week of treatment
Experimental: The length of the patient's leg was measured from the knee to the heel using a knemometer provided to the sites. Knee-to-heel length was recorded in millimeters on the CRF. To the extent possible, length was measured at approximately the same time each day and by the same person. Three measurements were made and the mean value was entered on the CRF.
Combined Analysis: • The combined statistical analysis of CFA data used the overall CFA values as calculated for each infant/treatment-period from each of the two individual studies. • Change in length (mm): Change in length was defined as the change in length from knee to heel from Day 1 to Day 7 in the first period and Day 10 to Day 16 in the second period. The Exploratory Efficacy Variables were: • Absorption of DHA and AA: Coefficients of absorption of DHA (C22:6 n-3) and AA (C20:4 n-6) measured in feces samples collected during the final 3 days (72 hours) of each treatment period. • Coefficients of absorption of DHA and AA were calculated using the same approach as used for CFA calculations, but using only the amounts of the individual (C22:6 n-3) and (C20:4 n-6) in samples for DHA and AA, respectively. 7.5.2 Efficacy Analysis Methodology […]

B1: rhBSSL: recombinant human bile-salt-stimulated lipase, SEQ ID. NO. 1, expressed from recombinant CHO cells; used in both clinical trials (protein, listed as Homo sapiens)
chain: AKLGAVYTEGGFVEGVNKKLGLLGDSVDIFKGIPFAAPTKALENPQPHPGWQGTLKAKNFKKRCLQATITQDSTYGDEDCLYLNIWVPQGRKQVSRDLPVMIWIYGGAFLMGSGHGANFLNNYLYDGEEIATRGNVIVVTFNYRVGPLGFLSTGDANLPGNYGLRDQHMAIAWVKRNIAAFGGDPNNITLFGESAGGASVSLQTLSPYNKGLIRRAISQSGVALSPWVIQKNPLFWAKKVAEKVGCPVGDAARMAQCLKVTDPRALTLAYKVPLAGLEYPMLHYVGFVPVIDGDFIPADPINLYANAADIDYIAGTNNMDGHIFASIDMPAINKGNKKVTEEDFYKLVSEFTITKGLRGAKTTFDVYTESWAQDPSQENKKKTVVDFETDVLFLVPTEIALAQHRANAKSAKTYAYLFSHPSRMPVYPKWVGADHADDIQYVFGKPFATPTGYRPQDRTVSKAMIAYWTNFAKTGDPNMGDSAVPTHWEPYTTENSGYLEITKKMGSSSMKRSLRTNFLRYWTLTYLALPTVTDQEATPVPPTGDSEATPVPPTGDSETAPVPPTGDSGAPPVPPTGDSGAPPVPPTGDSGAPPVPPTGDSGAPPVPPTGDSGAPPVPPTGDSGAPPVPPTGDSGAPPVPPTGDAGPPPVPPTGDSGAPPVPPTGDSGAPPVTPTGDSETAPVPPTGDSGAPPVPPTGDSEAAPVPPTDDSKEAQMPAVIRF
Change in knee-to-heel length, rhBSSL versus placebo: No noticeable differences; also recorded: No difference
